Where “and” joins values, the source holds several entries; their conditions need not be identical. Equal values may be shown once.
Molecular target: Optineurin (OPTN) (Homo sapiens, UniProt Q96CV9 1-577)
Assay: tryptophan fluorescence quenching titration

Optineurin (OPTN), sequence (Q96CV9 whole entry): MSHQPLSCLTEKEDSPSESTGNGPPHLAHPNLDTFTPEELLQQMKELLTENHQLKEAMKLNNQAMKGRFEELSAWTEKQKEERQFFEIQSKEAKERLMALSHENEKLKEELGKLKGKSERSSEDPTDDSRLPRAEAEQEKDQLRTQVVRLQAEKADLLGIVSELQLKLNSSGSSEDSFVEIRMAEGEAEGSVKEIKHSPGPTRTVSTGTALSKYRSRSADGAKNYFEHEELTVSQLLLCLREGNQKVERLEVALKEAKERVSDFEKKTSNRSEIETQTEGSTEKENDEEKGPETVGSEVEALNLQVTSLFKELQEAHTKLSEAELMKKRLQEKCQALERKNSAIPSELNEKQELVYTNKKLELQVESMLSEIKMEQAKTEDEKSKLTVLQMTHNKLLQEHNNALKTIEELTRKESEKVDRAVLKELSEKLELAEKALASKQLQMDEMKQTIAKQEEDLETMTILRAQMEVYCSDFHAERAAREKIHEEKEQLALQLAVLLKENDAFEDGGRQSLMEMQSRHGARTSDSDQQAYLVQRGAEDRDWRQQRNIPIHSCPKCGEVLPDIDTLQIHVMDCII

## UGUGUGUGUGUGUGUGUGUGUGUG (ssRNA) [UG-repeat RNA 24-mer]
  Kd: 4.61 µM and 4.49 µM
